B1: HER-2 X EGFR X cMet TsAb_N_L (other)
heavy 1: DIQMTQSPSSLSASVGDRVTITCKSSQSLLYTSSQKNYLAWYQQKPGDAPKLLIYWASTRESGVPSRFSGSGSGTDFTLTISSLQPEDFATYYCQQYYAYPWTFGQGTKVEIKRTVAAPSVFIFPPSDKQLKSGTARVVCLLNNFYPREAKVQWKVDNALQSGNSQESVTEQDSKDSTYSLISTLTLSKADYEKHKVYACEVTHQGLSSPVTKSFNRGECGGGGSGGGGSGGGGSGGGGSGGGGSQVQLVQSGAEVKKPGASVKVSCKASGYTFTSHWMHWVRYAPGQGLEWIGEFNPSNGRTNYNEKFKSKATMTVDTSTNTAYMELSSLRSEDTAVYYCASRDYDYDGRYFDYWGQGTLVTVSSASTKGPSVFPLAPCSKSTSGGTAALGCLVKDYFPEPVTVSWNSGALTSGVHTFPAVLQSSGLYSLSSVVTVPSSSLGTQTYICNVNHKPSNTKVDKKVEPDSGDKTHTCPPCPAPEAAGGPSVFLFPPKPKDTLMISRTPEVTCVVVDVSHEDPEVKFNWYVDGVEVHNAKTKPREEQYQSTYRVVSVLTVLHQDWLNGKEYKCKVSNKALPAPIEKTISKAKGQPREPQVYTLPPSRGDMTKNQVQLTCLVKGFYPSDIAVEWESNGQPENNYKTTPPVLDSDGSFFLASKLTVDKSRWQQGNVFSCSVMHEALHNHYTQKSLSLSPG
light 1: DIQMTQSPSSLSASVGDRVTITCSASSSVTYMYWYQRKPGKAPKLLIYDTSNLASGVPSRFSGSGSGTDYTFTISSLQPEDIATYYCQQWSSHIFTFGQGTKVEIKRTVAAPSVFIFPPSKEQLKSGTASVVCLLNNFYPREAKVQWKVDNALQSGNSQESVTEQDSKDSTYSLSSTLTLSKADYEKHKVYACEVTHQGLSSPVTKSFNRGEC
heavy 2: EVQLVESGGGLVQPGGSLRLSCAASGFTFTDYTMDWVRKAPGKGLEWVADVNPNSGGSIYNQEFKGRFTLSVDRSKNTLYLQMNSLRAEDTAVYYCARNLGPSFYFDYWGQGTLVTVSSASTKGPSVFPLAPSSKSTSGGTAALGCLVKDYFPEPVTVSWNSGALTSGVATGPAVLQSSGLYSLSSVVTVPSSSLGTQTYICNVNHKPSNTKVDKKVEPKSCDKTHTCPPCPAPEAAGGPSVFLFPPKPKDTLMISRTPEVTCVVVDVSHEDPEVKFNWYVDGVEVHNAKTKPREEQYQSTYRVVSVLTVLHQDWLNGKEYKCKVSNKALPAPIEKTISKAKGQPREPQVSTLPPSREEMTKNQVSLMCLVYGFYPSDIAVEWESNGQPENNYKTTPPVLDSDGSFFLYSVLTVDKSRWQQGNVFSCSVMHEALHNHYTQKSLSLSPG
light 2: RIQMTQSPSSLSASVGDRVTITCKASQDVSIGVAWYQDKPGKAPKLLIYSASYRYTGVPSRFSGSGSGTDFTLTISSLQPEDFATYYCQQYYIYPYTFGQGTKVEIKGQPKAAPSVTLFPPSSEELQANKATLVCYISDFYPGAVTVAWKADSSPVKAGVETTTPSKQSNNKYAAWSYLSLTPEQWKSHRSYSCQVTHEGSTVEKTVAPTEC
chain: EVQLVESGGGLVQPGGSLRLSCAASGYTFTSYWLHWVRQAPGKGLEWVGMIDPSNSDTRFNPNFKDRFTISADTSKNTAYLQMNSLRAEDTAVYYCATYRSYVTPLDYWGRGTLVTVSSASTKGPSVFPLAPSSKSTSGGTAALGCLVADYFPEPVTVSWNSGALTSGVHTFPAVLQSSGLYSLSSVVTVPSSSLGTQTYICNVNHKPSNTKVDERVEPKSC
notes: Trispecific IgG-Fab antibody; the anti-cMet Fab is fused N-terminally through its light chain
B2: HER-2 X EGFR X cMet TsAb_HHL (other)
heavy: EVQLVESGGGLVQPGGSLRLSCAASGFTFTDYTMDWVRKAPGKGLEWVADVNPNSGGSIYNQEFKGRFTLSVDRSKNTLYLQMNSLRAEDTAVYYCARNLGPSFYFDYWGQGTLVTVSSASTKGPSVFPLAPSSKSTSGGTAALGCLVKDYFPEPVTVSWNSGALTSGVATGPAVLQSSGLYSLSSVVTVPSSSLGTQTYICNVNHKPSNTKVDKKVEPKSCGGGGSGGGGSGGGGSQVQLVQSGAEVKKPGASVKVSCKASGYTFTSHWMHWVRYAPGQGLEWIGEFNPSNGRTNYNEKFKSKATMTVDTSTNTAYMELSSLRSEDTAVYYCASRDYDYDGRYFDYWGQGTLVTVSSASTKGPSVFPLAPCSKSTSGGTAALGCLVKDYFPEPVTVSWNSGALTSGVHTFPAVLQSSGLYSLSSVVTVPSSSLGTQTYICNVNHKPSNTKVDKKVEPDSGGGGGSGGGGSGGGGSDIQMTQSPSSLSASVGDRVTITCKSSQSLLYTSSQKNYLAWYQQKPGDAPKLLIYWASTRESGVPSRFSGSGSGTDFTLTISSLQPEDFATYYCQQYYAYPWTFGQGTKVEIKRTVAAPSVFIFPPSDKQLKSGTARVVCLLNNFYPREAKVQWKVDNALQSGNSQESVTEQDSKDSTYSLISTLTLSKADYEKHKVYACEVTHQGLSSPVTKSFNRGECHHHHHHHH
light 1: B1 light 2
light 2: B1 light 1
chain: B1 chain
notes: Tandem Fab trispecific antibody without Fc
B3: HER-2 X EGFR X cMet TsAb_HHH (other)
heavy: EVQLVESGGGLVQPGGSLRLSCAASGFTFTDYTMDWVRKAPGKGLEWVADVNPNSGGSIYNQEFKGRFTLSVDRSKNTLYLQMNSLRAEDTAVYYCARNLGPSFYFDYWGQGTLVTVSSASTKGPSVFPLAPSSKSTSGGTAALGCLVKDYFPEPVTVSWNSGALTSGVATGPAVLQSSGLYSLSSVVTVPSSSLGTQTYICNVNHKPSNTKVDKKVEPKSCGGGGSGGGGSGGGGSQVQLVQSGAEVKKPGASVKVSCKASGYTFTSHWMHWVRYAPGQGLEWIGEFNPSNGRTNYNEKFKSKATMTVDTSTNTAYMELSSLRSEDTAVYYCASRDYDYDGRYFDYWGQGTLVTVSSASTKGPSVFPLAPCSKSTSGGTAALGCLVKDYFPEPVTVSWNSGALTSGVHTFPAVLQSSGLYSLSSVVTVPSSSLGTQTYICNVNHKPSNTKVDKKVEPDSGGGGGSGGGGSGGGGSEVQLVESGGGLVQPGGSLRLSCAASGYTFTSYWLHWVRQAPGKGLEWVGMIDPSNSDTRFNPNFKDRFTISADTSKNTAYLQMNSLRAEDTAVYYCATYRSYVTPLDYWGRGTLVTVSSASTKGPSVFPLAPSSKSTSGGTAALGCLVADYFPEPVTVSWNSGALTSGVHTFPAVLQSSGLYSLSSVVTVPSSSLGTQTYICNVNHKPSNTKVDERVEPKSCHHHHHHHH
light 1: B1 light 2
light 2: B1 light 1
light 3: DIQMTQSPSSLSASVGDRVTITCKSSQSLLYTSSQKNYLAWYQQKPGDAPKLLIYWASTRESGVPSRFSGSGSGTDFTLTISSLQPEDFATYYCQQYYAYPWTFGQGTKVEIKRTVAAPSVFIFPPSDKQLKSGTARVVCLLNNFYPREAKVQWKVDNALQSGNSQESVTEQDSKDSTYSLISTLTLSKADYEKHKVYACEVTHQGLSSPVTKSFNRGEC
notes: as for B2

T2 sequence (P08581 25-932): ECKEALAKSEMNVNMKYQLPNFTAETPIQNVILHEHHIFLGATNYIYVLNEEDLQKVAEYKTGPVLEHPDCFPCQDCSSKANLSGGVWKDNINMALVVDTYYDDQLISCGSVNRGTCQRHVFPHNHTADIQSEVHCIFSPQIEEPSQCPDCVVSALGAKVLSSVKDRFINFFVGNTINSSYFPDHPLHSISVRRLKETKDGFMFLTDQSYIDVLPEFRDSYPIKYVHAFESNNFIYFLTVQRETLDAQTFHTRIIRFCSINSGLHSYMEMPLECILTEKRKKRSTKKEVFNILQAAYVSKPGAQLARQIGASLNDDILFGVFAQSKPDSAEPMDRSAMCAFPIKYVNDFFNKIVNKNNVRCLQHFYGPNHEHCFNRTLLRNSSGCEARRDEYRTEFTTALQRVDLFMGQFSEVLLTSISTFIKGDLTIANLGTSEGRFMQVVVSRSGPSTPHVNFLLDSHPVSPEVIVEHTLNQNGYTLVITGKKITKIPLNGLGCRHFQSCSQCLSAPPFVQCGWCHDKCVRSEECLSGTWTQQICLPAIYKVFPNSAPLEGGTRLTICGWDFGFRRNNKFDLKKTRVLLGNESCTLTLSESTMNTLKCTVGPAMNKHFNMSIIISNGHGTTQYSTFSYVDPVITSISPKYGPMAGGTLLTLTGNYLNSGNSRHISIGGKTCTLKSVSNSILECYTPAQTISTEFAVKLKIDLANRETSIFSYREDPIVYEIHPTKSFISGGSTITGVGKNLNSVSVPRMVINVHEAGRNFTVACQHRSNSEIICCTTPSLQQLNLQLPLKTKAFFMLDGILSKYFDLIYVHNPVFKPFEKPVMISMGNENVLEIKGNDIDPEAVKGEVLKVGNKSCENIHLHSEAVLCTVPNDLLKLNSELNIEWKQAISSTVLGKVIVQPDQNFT

One assay has as its target T1, Soluble human HER-2 extracellular domain (ECD) protein (human, UniProt P04626 23-652).
T1 construct: extracellular domain; His-tagged
As to the kind of experiment: SPR, captured via anti-human kappa, soluble ECD injected. Background: In SPR one partner is held on a chip, and binding of the other changes the refractive index at the surface.
On to B1, for which the Kd (commonly the free concentration of one partner at which half of the binding sites on the other are occupied at equilibrium, for simple one-to-one binding) came to 900 pM; the koff (as a rule, the first-order rate constant of dissociation) stood at 0.00024 s⁻¹; the association rate constant (kon) (commonly the second-order rate constant of association) stood at 260000 M⁻¹ s⁻¹.
Taken in the same sequence, the figures for B2 were 700 pM, 0.00021 s⁻¹ and 300000 M⁻¹ s⁻¹.
The like results for B3 were, in that order, 800 pM, 0.00022 s⁻¹ and 260000 M⁻¹ s⁻¹.

The next assay concerns the target T2, Soluble human cMet extracellular domain (ECD) protein (human, UniProt P08581 25-932).
T2 construct: extracellular domain; His-tagged
The assay is described as above.
Molecule B1 displayed a Kd of 360 pM, a koff of 0.00016 s⁻¹ and a kon of 440000 M⁻¹ s⁻¹.
For B2, the dissociation constant (Kd) came to 540 pM, the koff worked out at 0.00014 s⁻¹ and the kon amounted to 260000 M⁻¹ s⁻¹.
The molecule B3 registered a Kd of 770 pM, a koff of 0.00013 s⁻¹ and a kon of 170000 M⁻¹ s⁻¹.

The target in a further assay is T3, Soluble human EGFR ECD protein (human, UniProt P00533 25-645).
T3 construct: extracellular domain; His-tagged
The assay is described as above.
The molecule B1 had an equilibrium dissociation constant (Kd) of 13000 pM, a koff of 0.009 s⁻¹ and a kon of 720000 M⁻¹ s⁻¹.
Molecule B2 returned a Kd of 10000 pM, a koff of 0.0058 s⁻¹ and a kon of 560000 M⁻¹ s⁻¹.
The like results for B3 were, in that order, 15000 pM, 0.0055 s⁻¹ and 360000 M⁻¹ s⁻¹.

The record behind these values is patent publication US20240132626A1 (Eli Lilly, published 2024).
